Experimental data as given in US20110190386A1.

What was measured:
[1] = target: CFP from CFP-empty plasmid (pECFP); assay: FRET by acceptor photobleaching; negative control, cotransfection of empty CFP and YFP plasmids in MDA-MB231 cells
[2] = target: CFP-tagged CD44 (human full length CD44s cDNA fused in frame into pECFP, expressed in MDA-MB231 cells) (human) (UniProt P16070); assay: FRET by acceptor photobleaching, CFP-CD44/YFP-OPN in MDA-MB231 cells, in the presence of mutated OPN-R3 RNA aptamer (control)
[3] = target: CFP-tagged CD44 (human full length CD44s cDNA fused in frame into pECFP, expressed in MDA-MB231 cells) (human) (UniProt P16070); assay: FRET by acceptor photobleaching, CFP-CD44/YFP-OPN in MDA-MB231 cells, in the presence of blocking antibody to αvβ3 integrin
[4] = target: CFP-tagged CD44 (human full length CD44s cDNA fused in frame into pECFP, expressed in MDA-MB231 cells) (human) (UniProt P16070); assay: FRET by acceptor photobleaching, confocal microscopy, MDA-MB231 cells coexpressing CFP-CD44 and YFP-OPN

| FRET efficiency [1] [%] | FRET efficiency [2] [%] | FRET efficiency [3] [%] | FRET efficiency [4] [%] | Substance |
| --- | --- | --- | --- | --- |
| 0.23 |  |  |  | YFP from YFP-empty plasmid (pEYFP) |
|  | 23.1 | 19.6 | 24.2 | YFP-tagged OPN (human OPN cDNA fused in frame into pEYFP, expressed in MDA-MB231 cells) (from UniProt P10451 17-314) (ligand) |
